Experimental findings from PMC8616905 are described below.

Data set [1] has as its target Ago2 (guide-loaded) (human) (UniProt Q9UKV8). As to the kind of experiment: EMSA.
The target is the same in data set [2]. Nature of the data set: koff measurement.

Read-outs that look alike come from different tables or passages of the source.

Ago2 (guide-loaded) (human), sequence (Q9UKV8 whole entry): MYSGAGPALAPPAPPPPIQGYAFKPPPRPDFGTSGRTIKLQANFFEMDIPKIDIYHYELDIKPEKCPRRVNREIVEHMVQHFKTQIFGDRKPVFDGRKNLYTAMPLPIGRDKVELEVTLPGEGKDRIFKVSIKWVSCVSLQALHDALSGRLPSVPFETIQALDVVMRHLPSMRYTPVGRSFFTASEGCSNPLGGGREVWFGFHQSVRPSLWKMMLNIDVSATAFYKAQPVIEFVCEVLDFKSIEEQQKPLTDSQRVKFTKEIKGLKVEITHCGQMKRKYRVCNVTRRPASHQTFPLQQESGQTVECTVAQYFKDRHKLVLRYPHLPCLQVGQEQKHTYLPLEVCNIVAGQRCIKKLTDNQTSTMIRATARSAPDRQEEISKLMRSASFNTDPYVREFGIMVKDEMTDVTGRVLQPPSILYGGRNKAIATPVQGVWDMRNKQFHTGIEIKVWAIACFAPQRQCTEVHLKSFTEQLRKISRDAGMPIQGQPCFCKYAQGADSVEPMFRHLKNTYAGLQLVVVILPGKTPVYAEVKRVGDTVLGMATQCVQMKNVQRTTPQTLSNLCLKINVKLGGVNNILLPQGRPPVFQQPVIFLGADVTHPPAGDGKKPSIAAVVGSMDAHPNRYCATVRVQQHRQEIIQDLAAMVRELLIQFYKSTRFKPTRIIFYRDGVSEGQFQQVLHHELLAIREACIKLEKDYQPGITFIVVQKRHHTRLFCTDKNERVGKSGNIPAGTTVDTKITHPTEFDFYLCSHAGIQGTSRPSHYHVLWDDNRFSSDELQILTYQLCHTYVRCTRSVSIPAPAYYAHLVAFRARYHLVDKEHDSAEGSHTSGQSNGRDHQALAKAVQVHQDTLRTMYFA

HCV 5' UTR deltaSL1 + miR-122 guide yielded a Kd in data set [1] of 0.058 nM. That is a picomolar value.

In data set [2], Site-1 WT + miR-122 guide showed a binding signal (relative koff (reference)) of 1.

“Site-1 deltaSL1 (A4 bridge) + miR-122 guide”: the koff fold change (fold slower koff than Site-1 WT) in data set [2] stood at 6.

As for Site-1 t9 abasic + miR-122 guide, the koff fold change (fold slower koff than Site-1 WT) in data set [2] (abasic nucleotide at t9 (G21)) worked out at 3.
